Biological target: the molecule itself
Experiment: AUC

B1: E. coli cyclopropane fatty acid (CFA) synthase, wild type (from His6-TEV-CFA synthase) (enzyme, UniProt P0A9H7 1-382, looked up)
chain: MSSSCIEEVSVPDDNWYRIANELLSRAGIAINGSAPADIRVKNPDFFKRVLQEGSLGLGESYMDGWWECDRLDMFFSKVLRAGLENQLPHHFKDTLRIAGARLFNLQSKKRAWIVGKEHYDLGNDLFSRMLDPFMQYSCAYWKDADNLESAQQAKLKMICEKLQLKPGMRVLDIGCGWGGLAHYMASNYDVSVVGVTISAEQQKMAQERCEGLDVTILLQDYRDLNDQFDRIVSVGMFEHVGPKNYDTYFAVVDRNLKPEGIFLLHTIGSKKTDLNVDPWINKYIFPNGCLPSVRQIAQSSEPHFVMEDWHNFGADYDTTLMAWYERFLAAWPEIADNYSERFKRMFTYYLNACAGAFRARDIQLWQVVFSRGVENGLRVAR
In the case of B1, the “stoichiometry N” value is reported as 2.

Source: paper PMC6125206 (Structure (London, England : 1993), 2018)
